# Experimental data taken from IntAct's records for PubMed 24316379.
# B1: Interleukin-1 receptor-associated kinase 4 (Homo sapiens), Q9NWZ3 (parent)
# chain: MNKPITPSTYVRCLNVGLIRKLSDFIDPQEGWKKLAVAIKKPSGDDRYNQFHIRRFEALLQTGKSPTSELLFDWGTTNCTVGDLVDLLIQNEFFAPASLLLPDAVPKTANTLPSKEAITVQQKQMPFCDKDRTLMTPVQNLEQSYMPPDSSSPENKSLEVSDTRFHSFSFYELKNVTNNFDERPISVGGNKMGEGGFGVVYKGYVNNTTVAVKKLAAMVDITTEELKQQFDQEIKVMAKCQHENLVELLGFSSDGDDLCLVYVYMPNGSLLDRLSCLDGTPPLSWHMRCKIAQGAANGINFLHENHHIHRDIKSANILLDEAFTAKISDFGLARASEKFAQTVMTSRIVGTTAYMAPEALRGEITPKSDIYSFGVVLLEIITGLPAVDEHREPQLLLDIKEEIEDEEKTIEDYIDKKMNDADSTSVEAMYSVASQCLHEKKNKRPDIKKVQQLLQEMTAS
# Variants of: B1
# Conditions: with MYD88, Q99836-1
# MYD88, Q99836-1, sequence (Q99836 whole entry): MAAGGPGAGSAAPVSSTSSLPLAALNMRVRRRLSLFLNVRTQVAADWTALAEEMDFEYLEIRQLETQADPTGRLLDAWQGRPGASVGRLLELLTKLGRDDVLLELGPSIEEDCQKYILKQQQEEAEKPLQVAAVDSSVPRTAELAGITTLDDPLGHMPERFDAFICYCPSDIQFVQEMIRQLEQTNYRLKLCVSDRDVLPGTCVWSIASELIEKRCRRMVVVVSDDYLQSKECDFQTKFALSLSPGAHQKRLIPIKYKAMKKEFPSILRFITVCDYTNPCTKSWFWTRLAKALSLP
row,effect of a mutation on the interaction,Variant
1,decreasing interaction strength,MNKPITPSTYVCCLNVGLIRKLSDFIDPQEGWKKLAVAIKKPSGDDRYNQFHIRRFEALLQTGKSPTSELLFDWGTTNCTVGDLVDLLIQNEFFAPASLLLPDAVPKTANTLPSKEAITVQQKQMPFCDKDRTLMTPVQNLEQSYMPPDSSSPENKSLEVSDTRFHSFSFYELKNVTNNFDERPISVGGNKMGEGGFGVVYKGYVNNTTVAVKKLAAMVDITTEELKQQFDQEIKVMAKCQHENLVELLGFSSDGDDLCLVYVYMPNGSLLDRLSCLDGTPPLSWHMRCKIAQGAANGINFLHENHHIHRDIKSANILLDEAFTAKISDFGLARASEKFAQTVMTSRIVGTTAYMAPEALRGEITPKSDIYSFGVVLLEIITGLPAVDEHREPQLLLDIKEEIEDEEKTIEDYIDKKMNDADSTSVEAMYSVASQCLHEKKNKRPDIKKVQQLLQEMTAS [R12C]
2,decreasing interaction strength,MNKPITPSTYVRCLNVGLIWKLSDFIDPQEGWKKLAVAIKKPSGDDRYNQFHIRRFEALLQTGKSPTSELLFDWGTTNCTVGDLVDLLIQNEFFAPASLLLPDAVPKTANTLPSKEAITVQQKQMPFCDKDRTLMTPVQNLEQSYMPPDSSSPENKSLEVSDTRFHSFSFYELKNVTNNFDERPISVGGNKMGEGGFGVVYKGYVNNTTVAVKKLAAMVDITTEELKQQFDQEIKVMAKCQHENLVELLGFSSDGDDLCLVYVYMPNGSLLDRLSCLDGTPPLSWHMRCKIAQGAANGINFLHENHHIHRDIKSANILLDEAFTAKISDFGLARASEKFAQTVMTSRIVGTTAYMAPEALRGEITPKSDIYSFGVVLLEIITGLPAVDEHREPQLLLDIKEEIEDEEKTIEDYIDKKMNDADSTSVEAMYSVASQCLHEKKNKRPDIKKVQQLLQEMTAS [R20W]

# Variants of: B1
# Conditions: with MYD88, Q99836-1
# Remark: another data set of the same source
row,effect of a mutation on the interaction,Variant
1,disrupting interaction strength,MNKPITPSTYVCCLNVGLIRKLSDFIDPQEGWKKLAVAIKKPSGDDRYNQFHIRRFEALLQTGKSPTSELLFDWGTTNCTVGDLVDLLIQNEFFAPASLLLPDAVPKTANTLPSKEAITVQQKQMPFCDKDRTLMTPVQNLEQSYMPPDSSSPENKSLEVSDTRFHSFSFYELKNVTNNFDERPISVGGNKMGEGGFGVVYKGYVNNTTVAVKKLAAMVDITTEELKQQFDQEIKVMAKCQHENLVELLGFSSDGDDLCLVYVYMPNGSLLDRLSCLDGTPPLSWHMRCKIAQGAANGINFLHENHHIHRDIKSANILLDEAFTAKISDFGLARASEKFAQTVMTSRIVGTTAYMAPEALRGEITPKSDIYSFGVVLLEIITGLPAVDEHREPQLLLDIKEEIEDEEKTIEDYIDKKMNDADSTSVEAMYSVASQCLHEKKNKRPDIKKVQQLLQEMTAS [R12C]
